According to patent US20200002426A1 (published 2020):

Experiments:
[1] = molecular target: human PD-L1 on CHO-K1 cells (human, UniProt Q9NZQ7 19-290); assay: FACS binding
[2] = molecular target: FITC labeled human PD-L1-Fc protein (human, UniProt Q9NZQ7 19-238, FITC labeled (sites not given)); assay: FACS blocking of PD-L1/PD-1
His-tagged huPD-L1 = His-tagged huPD-L1 (human, UniProt Q9NZQ7 19-238); assay: BLI
His tagged TGF-β1 = His tagged TGF-β1 (UniProt P01137 279-390); assay: BLI
huTGF-β1 = huTGF-β1 (human, UniProt P01137 279-390); assay: ELISA; simultaneous binding, detected with biotinylated hu PD-L1
Chain of huTGF-β1 (P01137 279-390): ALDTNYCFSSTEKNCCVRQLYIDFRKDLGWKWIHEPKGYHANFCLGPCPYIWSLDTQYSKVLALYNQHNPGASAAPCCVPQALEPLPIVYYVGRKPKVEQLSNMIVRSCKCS

Chain of human PD-L1 on CHO-K1 cells (Q9NZQ7 19-290): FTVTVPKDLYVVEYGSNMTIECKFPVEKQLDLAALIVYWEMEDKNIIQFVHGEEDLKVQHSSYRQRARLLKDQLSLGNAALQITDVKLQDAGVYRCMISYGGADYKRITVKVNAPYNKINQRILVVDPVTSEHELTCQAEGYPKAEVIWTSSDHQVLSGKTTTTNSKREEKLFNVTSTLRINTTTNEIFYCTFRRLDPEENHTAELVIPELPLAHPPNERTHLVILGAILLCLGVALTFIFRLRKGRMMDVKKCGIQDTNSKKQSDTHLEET
Chain of His tagged TGF-β1 (P01137 279-390): as the sequence (P01137 279-390) above
Chain of His-tagged huPD-L1 (Q9NZQ7 19-238): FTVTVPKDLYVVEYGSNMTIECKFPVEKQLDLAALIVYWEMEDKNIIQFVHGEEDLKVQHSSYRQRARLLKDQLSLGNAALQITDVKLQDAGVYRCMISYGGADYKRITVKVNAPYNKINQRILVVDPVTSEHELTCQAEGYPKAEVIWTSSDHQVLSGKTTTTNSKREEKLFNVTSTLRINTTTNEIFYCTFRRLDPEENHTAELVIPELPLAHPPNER
Chain of FITC labeled human PD-L1-Fc protein (Q9NZQ7 19-238): as above

EC50 [1]: 1.6 nM
IC50 [2]: 1.23 nM
Kd (His-tagged huPD-L1): 0.83 nM
Kd (His tagged TGF-β1): 0.28 nM
EC50 (huTGF-β1): 10.3 nM
B1: Bi-PLB-1.2 (antibody)
chain 1: not shown
chain 2: DIQMTQSPSFLSASVGDRVTITCKASQNVGTNVAWYQQKPGKAPKALIYSASYRYSGVPSRFSGSGSGTEFTLTISSLQPEDFATYYCQQYYSYPYTFGQGTKLEIKRTVAAPSVFIFPPSDEQLKSGTASVVCLLNNFYPREAKVQWKVDNALQSGNSQESVTEQDSKDSTYSLSSTLTLSKADYEKHKVYACEVTHQGLSSPVTKSFNRGEC
